# Results: PMC2156119 (The Journal of Cell Biology, 1999)
# Like-named read-outs stand apart in the source and are kept apart here.
# B1: Op18-wt-F (oncoprotein 18/stathmin, wild type, COOH-terminal Flag epitope) (natural protein, human, UniProt P16949 1-149, looked up)
# chain: MASSDIQVKELEKRASGQAFELILSPRSKESVPEFPLSPPKKKDLSLEEIQKKLEAAEERRKSHEAEVLKQLAEKREHEKEVLQKAIEENNNFSKMAEEKLTHKMEANKENREAQMAAKLERLREKDKHIEEVRKNKESKDPADETEAD
# Tests used:
# [1] = target: T1, tubulin heterodimer (bovine tubulin) (bovine, UniProt Q6B856 1-445); test: pull-down
# [2] = target: T1, tubulin heterodimer (bovine tubulin); test: pull-down; remark: listed apart in the source
binder,measurement,setting,value
B1,koff,[1],0.01 s⁻¹
same,koff,[2],0.0025 s⁻¹
